{"source": "patent US20210395746", "about": "“COMPOSITIONS FOR […] TRANSCRIPTIONAL FEEDBACK CIRCUIT DISRUPTION AND USES […]” (The J. David Gladstone Institutes, a testamentary trust …, published 2021)", "key": {"[1]": {"molecular_target": "T1, IE86 (IE2) C-terminal fragment (Human cytomegalovirus) (UniProt Q6SWP7)", "T1 sequence": "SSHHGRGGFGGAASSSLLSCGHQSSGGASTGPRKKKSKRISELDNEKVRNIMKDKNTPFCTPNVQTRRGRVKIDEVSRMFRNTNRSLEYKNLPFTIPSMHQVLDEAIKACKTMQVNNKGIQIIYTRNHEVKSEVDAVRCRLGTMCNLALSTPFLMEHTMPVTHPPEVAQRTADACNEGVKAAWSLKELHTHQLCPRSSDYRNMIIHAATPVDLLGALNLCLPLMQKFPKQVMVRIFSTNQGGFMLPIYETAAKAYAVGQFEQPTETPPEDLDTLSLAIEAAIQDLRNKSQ", "settings": "FPLC Superose 6; 20 mM HEPES pH 7.4, 250 mM NaCl, 1 mM DTT; most efficient length"}, "IE175 (ICP4)": {"molecular_target": "T2, IE175 (ICP4) (Herpes simplex virus type 1, UniProt P08392 P08392:1-1298)", "T2 sequence": "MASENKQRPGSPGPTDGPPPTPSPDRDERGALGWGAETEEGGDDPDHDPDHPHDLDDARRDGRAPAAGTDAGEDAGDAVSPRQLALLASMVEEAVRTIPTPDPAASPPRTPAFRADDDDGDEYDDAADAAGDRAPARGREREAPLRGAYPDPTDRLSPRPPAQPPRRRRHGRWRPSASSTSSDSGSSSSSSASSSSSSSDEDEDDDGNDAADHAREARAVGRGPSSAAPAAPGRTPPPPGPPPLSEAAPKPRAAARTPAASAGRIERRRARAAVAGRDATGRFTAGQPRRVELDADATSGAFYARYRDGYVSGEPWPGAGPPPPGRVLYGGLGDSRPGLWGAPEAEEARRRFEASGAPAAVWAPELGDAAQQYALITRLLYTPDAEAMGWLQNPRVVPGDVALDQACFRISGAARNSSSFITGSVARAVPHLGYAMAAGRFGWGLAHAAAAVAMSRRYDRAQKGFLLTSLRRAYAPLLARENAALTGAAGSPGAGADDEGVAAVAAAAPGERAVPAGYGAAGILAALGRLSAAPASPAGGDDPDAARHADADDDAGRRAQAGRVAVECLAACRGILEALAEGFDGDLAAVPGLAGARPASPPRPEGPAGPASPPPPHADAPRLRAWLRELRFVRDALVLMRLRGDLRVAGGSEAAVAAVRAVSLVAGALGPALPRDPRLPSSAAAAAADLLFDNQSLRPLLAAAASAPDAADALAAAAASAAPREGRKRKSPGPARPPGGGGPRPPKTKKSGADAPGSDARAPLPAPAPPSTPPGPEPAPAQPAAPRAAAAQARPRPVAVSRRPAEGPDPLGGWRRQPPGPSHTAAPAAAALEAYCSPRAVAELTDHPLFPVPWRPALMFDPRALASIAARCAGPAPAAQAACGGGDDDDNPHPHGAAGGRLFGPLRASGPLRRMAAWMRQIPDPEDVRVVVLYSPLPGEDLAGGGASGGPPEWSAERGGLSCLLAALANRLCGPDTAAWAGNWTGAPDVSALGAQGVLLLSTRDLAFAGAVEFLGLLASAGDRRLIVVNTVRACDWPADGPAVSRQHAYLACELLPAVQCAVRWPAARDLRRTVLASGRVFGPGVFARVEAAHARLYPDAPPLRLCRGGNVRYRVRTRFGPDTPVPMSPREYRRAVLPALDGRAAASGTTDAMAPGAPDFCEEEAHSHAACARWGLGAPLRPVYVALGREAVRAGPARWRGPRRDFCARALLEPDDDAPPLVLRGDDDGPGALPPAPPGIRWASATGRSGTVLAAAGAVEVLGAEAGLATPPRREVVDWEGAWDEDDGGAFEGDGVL", "assay": "cell_activity; HSV-1 C-DOT dose-response in 96-well format; indirect, decoy effect", "settings": "tags: YFP fusion, strain 17syn+; chain copies: 2"}, "[2]": {"molecular_target": "T3, IE86 (IE2) full-length, minimal feedback circuit or virus-encoded (Human cytomegalovirus, UniProt P19893 P19893:1-580)", "T3 sequence": "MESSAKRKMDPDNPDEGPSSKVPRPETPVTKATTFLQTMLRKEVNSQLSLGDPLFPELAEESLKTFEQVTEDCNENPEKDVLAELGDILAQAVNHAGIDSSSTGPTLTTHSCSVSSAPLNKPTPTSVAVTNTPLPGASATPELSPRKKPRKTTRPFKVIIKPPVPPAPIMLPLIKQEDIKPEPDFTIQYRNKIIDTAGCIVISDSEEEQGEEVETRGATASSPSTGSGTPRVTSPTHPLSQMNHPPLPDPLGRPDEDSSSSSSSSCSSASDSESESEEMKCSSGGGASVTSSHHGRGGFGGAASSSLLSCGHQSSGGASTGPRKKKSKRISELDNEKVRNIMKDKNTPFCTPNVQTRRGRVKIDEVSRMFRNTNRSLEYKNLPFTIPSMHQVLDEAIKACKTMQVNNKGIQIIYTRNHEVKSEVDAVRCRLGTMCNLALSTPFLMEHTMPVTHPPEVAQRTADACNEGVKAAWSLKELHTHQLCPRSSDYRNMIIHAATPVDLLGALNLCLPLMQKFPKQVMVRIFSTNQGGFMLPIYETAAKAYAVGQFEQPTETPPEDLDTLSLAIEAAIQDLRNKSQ", "assay": "cell_activity; CMV C-DOT dose-response in 96-well format; indirect, decoy effect", "settings": "tags: MIEP-IE86-IRES-GFP reporter or IE86-YFP virus; chain copies: 2"}}}
{"molecule": "GACAGATCGTTTAGTGAACCGTACACGA (double strand) [28 bp crs DNA]", "values": [{"measurement": "binding signal (% protein in complex fraction)", "setting": "[1]", "result": 98}]}
{"molecule": "C-DOTH (dsDNA, PS at bonds marked * CCG*AGGAC*GCCCCGATC*GTCCACACG*GAG / CTC*CGTGTGGAC*GATCGGGGC*GTCCT*CGG) DNA 1: CCGAGGACGCCCCGATCGTCCACACGGAG DNA 2: CTCCGTGTGGACGATCGGGGCGTCCTCGG", "values": [{"measurement": "IC50", "setting": "IE175 (ICP4)", "result": "< 1", "unit": "nM"}]}
{"molecule": "C-DOTC (dsDNA, PS at bonds marked * G*ACAGATCGTT*TAGTGAACC*GTACACG*A / T*CGTGTAC*GGTTCACTA*AACGATCTGT*C) DNA 1: GACAGATCGTTTAGTGAACCGTACACGA DNA 2: TCGTGTACGGTTCACTAAACGATCTGTC", "values": [{"measurement": "IC50", "setting": "[2]", "result": "< 1", "unit": "nM"}]}
